The target in this experiment is CD33 on HL60 leukemia cells (human) (UniProt P20138). Briefly: cell-based or functional assay.
Sequence of CD33 on HL60 leukemia cells (human) (P20138 18-364 limits assumed): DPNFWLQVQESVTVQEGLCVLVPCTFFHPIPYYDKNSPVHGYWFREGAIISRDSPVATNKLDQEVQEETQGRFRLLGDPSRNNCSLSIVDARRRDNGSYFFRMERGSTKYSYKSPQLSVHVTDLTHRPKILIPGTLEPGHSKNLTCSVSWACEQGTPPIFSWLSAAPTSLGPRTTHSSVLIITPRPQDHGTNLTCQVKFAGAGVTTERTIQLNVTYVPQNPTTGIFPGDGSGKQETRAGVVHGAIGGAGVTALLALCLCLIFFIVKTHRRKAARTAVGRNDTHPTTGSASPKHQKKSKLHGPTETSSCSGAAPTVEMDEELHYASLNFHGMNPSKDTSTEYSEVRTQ

The substance “Lintuzumab conjugated with Actinium-225 (antibody)” came in with an LD50 (dose at which 50% of the cells were killed), HL60 cell suspension of 8 pCi/mL.

These data come from US20200283539A1.
